# Values joined by “and” are separate entries in the source; they are usually repeats but may differ in a detail not shown here. Identical values can stand only once.
# Assays:
# [1] = target: SARS-CoV-2 spike N439K variant on pseudovirus (RVP-703) (SARS-CoV-2) (UniProt P0DTC2); test: cell-based or functional assay
# [2] = target: SARS-CoV-2 spike South African Δ3 B.1.351 variant on pseudovirus (RVP-724) (SARS-CoV-2) (UniProt P0DTC2); test: cell-based or functional assay
substance,measurement,setting,value
Imdevimab (biosimilar version) (antibody),"EC50 (pM) Neutralization, pseudovirus",[1],2260 pM and 2220 pM
same,"fold less potent than REGN10933, pseudovirus neutralization",[1],1000 fold
same,"EC50 (pM) Neutralization, pseudovirus",[2],2.48 pM and 2.37 pM
